Laboratory results taken from patent publication US20240092901A1.

Columns and labels:
Experiment in all cases: ELISA
[1] = molecular target: cynomolgus Ror2 (cynomolgus)
[2] = molecular target: human Ror2 (receptor tyrosine kinase-like orphan receptor 2) (human) (UniProt Q01974)
mouse Ror2 (mouse) = mouse Ror2 (mouse) (UniProt Q9Z138)
Sequence of mouse Ror2 (mouse) (Q9Z138 34-403 limits assumed): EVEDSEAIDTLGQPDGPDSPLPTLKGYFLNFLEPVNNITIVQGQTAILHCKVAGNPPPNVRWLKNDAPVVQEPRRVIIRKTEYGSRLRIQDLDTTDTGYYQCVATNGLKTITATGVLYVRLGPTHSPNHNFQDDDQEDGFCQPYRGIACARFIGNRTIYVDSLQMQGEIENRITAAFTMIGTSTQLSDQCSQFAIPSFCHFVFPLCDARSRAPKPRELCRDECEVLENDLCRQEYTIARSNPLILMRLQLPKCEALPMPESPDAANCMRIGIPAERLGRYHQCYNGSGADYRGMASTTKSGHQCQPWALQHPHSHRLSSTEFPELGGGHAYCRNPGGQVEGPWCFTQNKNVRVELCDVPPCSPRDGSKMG

Sequence of human Ror2 (receptor tyrosine kinase-like orphan receptor 2) (human) (Q01974 34-403 limits assumed): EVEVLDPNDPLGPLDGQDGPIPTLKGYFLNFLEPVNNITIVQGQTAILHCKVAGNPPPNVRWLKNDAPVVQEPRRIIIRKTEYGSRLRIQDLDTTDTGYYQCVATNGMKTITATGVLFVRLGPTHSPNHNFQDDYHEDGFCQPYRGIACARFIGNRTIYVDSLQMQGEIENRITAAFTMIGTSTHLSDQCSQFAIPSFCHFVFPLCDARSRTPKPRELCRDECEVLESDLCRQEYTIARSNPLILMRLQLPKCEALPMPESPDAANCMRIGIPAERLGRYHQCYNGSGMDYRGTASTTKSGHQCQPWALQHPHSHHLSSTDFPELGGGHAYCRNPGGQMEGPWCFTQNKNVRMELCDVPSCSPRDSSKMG

EC50 [1]: 0.327 µg/mL | EC50 [2]: 0.201 µg/mL | EC50 (mouse Ror2 (mouse)): 7.65 µg/mL
B1: conditionally active antibody BAP048 (antibody, from a related filing, V domains shown)
VH: EVQLVQSGAEVKKPGESLRISCKGSGYTFTEYTMHWVRQAPGQGLEWMGGINTNNGGTGYNQKFKGRVTISADKSISTAYLQWSSLKASDTAMYYCAHGSLYSYGNSYFDYWGQGTLVTVSS
VL: AIQLTQSPSSLSASVGDRVTITCSATSSVSYMHWYLQKPGQSPQLLIYGTSNLASGVPDRFSGSGSGTDFTLKISRVEAEDVGVYYCQQRSSYPFTFGQGTKVEIK
